Experiment: yeast display, Sf9 membrane polyspecificity reagent, FACS + sequencing; frameworks hold sequencing errors
How it was run: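 Nanobodies from a synthetic yeast display library (Saccharomyces cerevisiae BJ5465), induced 36–48 hours with galactose, were stained 1 hour at 4 °C with 10% biotinylated, detergent-solubilized Sf9 membrane reagent, enriched on streptavidin microbeads, then FACS-sorted. Anti-HA (expression) and streptavidin (reagent binding) fluorescence set low and high (top ~1%) gates. Polyreactivity labels come from the gate of origin. Genes were colony-PCR amplified, MiSeq 2 × 250 sequenced and filtered by CDR length.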

Sequence | polyreactivity (PSR sort gate)
QVQHVESGGGLVQAGGSLRLSCAASGTTFYFYAMGWYRQAPGKERELVAAITYSGGSTYYADSVKGRFTISRDNAKNTVYLQMNSLKPEDTAVYYCAAQWRRHSTRSRYYYWGQGTQVTVSS | high polyreactivity
QVQHVESGGGLVQAGGSLRLSCAASGVIIIGNAVGWYREAPVKEWEFVASIRGVGSTNYADSVKGRFTISRDNAKNTVYVQMNSLKPADSAVYYCATSVDRALYTQTRGDYEYWGQGTQVTVSS | low polyreactivity
QVQHVESGGGLVQAGGSLRLSCAASGYTFTINTMGWYRQAPGKERELVAAITWRGGSTYYADSVKGRFTISRDNAKNTVYLQMNSLKPEDSAVYYCNKDYYITTTTFDYWGQGTQVTVSS | low polyreactivity
QVQHVESGGGLVQAGGSLRLSCAATGRTFRHYAMGWYRLAPGKERELVAAISGSGGRTYYADSVKGRFTISRDNAKNTVYLQMISLKPEDTAVYYCNAYTWTYGEYEYWGQGTQVTVSS | high polyreactivity
QVQHVESGGGLVQAGGSLRLSCAAYGSIFGWYGMGWYRQAPGKERELVAAITRGGSTYYADSVKGRFTISRDNAKNTVYLQMISLKPEDTAVYYCAKRSGQQYGGYGYWGQGTHVTVSS | low polyreactivity
QVQHVESGGGLVQAGGSLRLSCAAYGSTFGVNAMGWYRQAPGKEREFVAAITWSSTSTYYADSVKGRFTISRDNAKNTVYLQMNSLKPEDTAVYYCAARQRIYRHYAYGYWGQGTQLTVSS | high polyreactivity
QVQHVESGGGLVQAGGSLRLSCASSGSIFYFYAKGWYRQAPGKERELVAAISWSGGSTYYADSVKGRFTISRDNAKNTFYLQMNSLKPEDTAVYYCNAADYWYWENDYWGQGTQVTVSS | low polyreactivity
QVQHVESGGGLVQAGGSLRLSCASSGSTSGIHAMGWYRQAPGKDRELVAAIRLSGGRTYYADSVKGRFTISRDNAKNTVYLQMNSLKPEDTAVYFCNALYRQARIRATYDYWGQGTQVSVSS | high polyreactivity
QVQHVESGGGLVQAGGSLRLSCSASGFTFYSYAMGWYRQAPGTERELLAVISKRGGSTRYADSVKGRFTISRDNAKNSVYFQMNSLKPEDTAVYYCNADQHSMTYNEFDYWGQGTQVTVSS | low polyreactivity
QVQHVESGGGLVQAGGSLRLSSAPSGRTFAYYARGWYRQAPGKERELVAAISNGGSTYYADSVKGRFTISRDNAKNTVFLQMNSLKPEDTAVYFCNAYYSDLYDYWGQGTQVTVSS | low polyreactivity
QVQHVESGGGLVQAGGSLRLTCAASGITFYRYAMGWYRQATGKEREFVAAINYGGSSTRYADSVKGRFTISLDNAKNSVYLQMNSLKPEDTAVYYCAVEKRYPRRRYDYWGQGTQVTVSS | low polyreactivity
QVQHVESGGGLVQAGGSLRLTCAASGSTFVNYAMGWYRQAPGKERELVAAITANGGRTYYADSVKGRFTISRDNAKNTVYLQMNSLKPEDTAVYYCNTESNLYRRRRNYWGQGTQVTVSS | low polyreactivity
QVQHVESGGGLVQAGGSLRLTCAASGTIFRYYTMRWYRQAPGKERELVASISRGGNTYYADSVKGRFTISRENAKNTVYLPMNSLKPEDTAVSYCAALPGSFFQAHFYYWGQGTQVTVSS | low polyreactivity
QVQHVESGGGLVQAGGTLRLSCAASGSTFLINTMGWYRQAPGKERELVAAISRSGGRTYYADSVKGRFTISRDNAKNTVYLQMNSLKPEDTAVYYCAAAYVYSNSYAFGSELYSWGQGTQVTVSS | high polyreactivity
QVQHVESGGGLVQAGVSLRLSCAASGSIFPYNAMGWYRQAPGKERELVATISSGGSTNYADSVKGRFTISRDNAKNTVYLQMNSLKPEDTAVYYCAGDVIVFYYAPNYWGDIEYGYWGQGTQVTVSS | low polyreactivity
QVQHVESGGGLVQAVGSLRLSCAASGRTFNNYAMGWYRQAPGKERELVAAISWRSDSTYYADSVMGRFTISRDNAKNTVYLQMNSLKPEDTAVYYCAASQYPLFWYDYWGQGTQVTVSS | low polyreactivity
QVQHVESGGGLVQEGGSLRLICSASGIIFSWYAMGWYRQAPGKERELVATISGGGGSTYYADSVKGRFTISRENAKNTVYLQMNRLKPEDTAVYYCAADYWNFNWRYKLYRPYDYWGQGTQVTVSS | high polyreactivity
QVQHVESGGGLVQEGGSLRLSCGASGRTFSYYAMGCYRQPPGKEREMVAAIRATGTTTYYAVSVKGRFTISRDNAKITFYFQMNSLKQDDTAVYYCAARGSRYRSSGYEEWGQGTQVTVSS | high polyreactivity
QVQHVESGGGLVQSGGSLRLSCAASGRIFDYNAMGWSRQAPGKERELVAAITSSSGSSTYYADSVKGRFTISRDNAKNTVYLQMNSLIPVDTAVYYCNAGGSDIYLSPFDYWGQGTQVTVSS | low polyreactivity
QVQHVESGGGVVQAGGSLRFSCAASGRIFYRYAMGWYRPAPGKERELVAAITIGGRTNYADSVKGRFTISRDNAKTTVYLQMNSLKPEDTAVYYCAVVLYTRYPPRVRYYYWGQGTQVTVSS | high polyreactivity
QVQHVESGRGLVQAGGSLRLSCAASGRIFNPYAMGRYRQAPGKERELVAAISRGGRTYYADSVKGRFTISRDNAKNTVYLQMNSLKPEDTAVYYCNAGRGLREDDYWGQGTQVTVSS | low polyreactivity
QVQHVESLGGLVQAGGSLRLSCAASGRTFFGYAMGWYRQEPGKERELVAAISSGGRTYFADSVKGRFTMSRDNAKNTVFLQMNSLKPEDTAVYYCAAQYSARYYYWGLGTQVTVSS | high polyreactivity

Sequence | polyreactivity (PSR sort gate)
QVQHVESRGGLVQAGGSLRLSCAASGFTFSRNAMGRYRQAPGKESDLVAAIDSGGSTDYADSVKGRFTNSRDNAKNTVYLQMNSLKPADTAVYYCAKASSATRYVQLRQDYDYWGQGTKVTVSS | low polyreactivity
QVQHVESRGGLVQAGGSLRLSCAASGRIFGTYGMGRYRQAPGKERELVAAINWRGGSTYYADSVKGRFTISRDNAKNTVYLQMNSLIPEDTAVYYCNARLYRKRLGYWGQGTQVTVSS | high polyreactivity
QVQHVESRGGLVQAGGSLRLSCAASGSIFNPYDMGWYRPATGKDRELVAAIDWSGGSTYYADSVKGRFTISRDNAKNTVYLQMNSLKPEDSAVYYCAAGYGGWAWNHVSYGGDYWGQGTQVTVSS | low polyreactivity
QVQHVESRGGLVQAGGSLRLSCAASGSIFSANAMGWYRQAPGKVRELVAAITRGGSTNYADSVKGRFTISRDNAKNTVYLQMNSLKPEDTAVYYCNAEPDPYSSGRVRRDYDYWGQGTQVTVSS | low polyreactivity
QVQHVESRGGLVQAGGSLRLSCAASGSTIGFYAMGWYRQAPGKERELVAGITNGGRTYYADSVKGRFTISRDNAKNTVYLQMISLKPEDTAVYYCIRTPRSKGNYWGQGTQVTVSS | high polyreactivity
QVQHVESVGGLVQAGGSLRLSCAPSGSIFWDNAMGWYRQAPGKERELVAAITSSGDTTYYADSVKGRFTISRDNAKNTVYLQMNSLKQEDTAVYYCAKVFGPTDYLTGTFKGDYWGQGTQVTVSS | low polyreactivity
QVQHVESVVGFVQAGASLRLSCASSVLILAQNTMGWYRQAPGKERELVAAISWRGGNTYYADSVKGRLTISRDNAKNTVYLKMNILKPEDTAVDYCAARRPRRIVDYDYWGQGTQVTVSS | high polyreactivity
QVQHVESWRGLVQAGGSLRLSCAASGSTNYPNAMGWSRQAPGKERELVPAITSGGSTYYADSVKGRFTISRDNAKNTVYLPMNSLKPEDTAVYYCAAQRRYHQDTTIGPGNYYYWGQGTQVTVSS | low polyreactivity
QVQHVESWRGLVQAGGSLRLSCDASGSIIQIYAMGWYRQAPGKVRELVASITWSGGSPYYADSVKGRFTISRDNAKNTVYLQMNSLKPEDTAVFYCATDKLYGRTVRMDYWGQGTQVTVSS | low polyreactivity
QVQIEDSGGGLVQAGGSLRLSCAASGSTLRGYAMGWYRHAPGKERELVAAISKNGGSTYYADSVKGRFTISRDKAKYTVYLQMNSLKPEDTAVYYCAAVGYYTKRRFGYWGQGTQVTVSS | high polyreactivity
QVQIEESGGALVQEGGSLRLSRAASGRTFYYYAMGWYRQAPGKERELVAGIDFSSGSTYYADSVKGRFTISRDNAKNTVYLQMNSLKPEDTAVYYCAAKWHVRGRGARYRYDYDYWGQGTQVTVSS | low polyreactivity
QVQIVDSGGGLVQAGGRLRLSCAPSGITFVYYAMGWYRQAPGKEREFVASITSNGVSTYYADSVKGRYTISRDNAMNTVYLQMNSLKPEDTAVYYCAADGTYRNYWYDYWGQGTQVTVSS | low polyreactivity
QVQIVDSGGGLVQAGGSLRLSCAASGRNFGYYAMGWYRQAPGKERELVAAISYSGGSTYYADSVKGRFTISRDMAKNTVYCQMNSLKPEDTAVYYCAAPGRWPQRYGYWGLGTQVTVSS | high polyreactivity
QVQIVDSGGGLVQAGGSLRLTCAASAITFSTNALGWNRQAPGKERELVAAITSVTSTYYADSVKGRFTISRDNAKNTVYLLMKSLKTEYTAVYYWAARLSRWPYFYEYNYWGQGTEVTVSS | low polyreactivity
QVQIVESCGGLVQAGGSLRLICAATGSIFLRNTMGWYRQAPAKQRELVASIDWSGGITYYADSVKGRFTISRDNAKNTVYLQMNSLKQEDTAVYFCNAVFLYPFNVPTMEYWGQGTQVTVSS | low polyreactivity
QVQIVESGAGLVQAGGSLRLSCAASGIIFPRYAMGWYRQAPGKERELVAAITIGGRTNYGDSVKGRFTISRDNGKNTFYLQMKSLKPEDTAVYYCAAQTFVPYSEYDYWGQGTQVTVSS | low polyreactivity
QVQIVESGGCLVQAGGSLRLSCAASGRTFWYYTMGWYRQAPGKEREFVAAISYSAGNTYYADSVKGRFTISRDNAKNTVYLQMNSLKPEDTAVNYCAVQRGYRSNAYDYWGQGTQVTVSS | high polyreactivity
QVQIVESGGCLVQAGGSLRLSWAASGGIFSTNAMGWYRQAPGKERELVAAISRRGGSTYYADSVKGRFTISRDNAKNTGYLQMNSLKPEDTAVYYCNKYLRLFSYGRGYDYWGQGTQVTVSS | high polyreactivity
QVQIVESGGGLFQAGGSLRLSCAASGGIFDFYAMGWYRPATGKEWELVAAITRSGSSTFYADSVKGRFTISRDNAKNTVYLQMNILKPEDTAVYYCAAPYSYFAVYYGYIVEYDYWGQGTQVTVSS | low polyreactivity
QVQIVESGGGLFQAGGSLRLSSAASGNTFDKYAMGWYRQAPGKEREMVAAISSGGRTYYADSVKGRFTISRDNAKNTVYLQMNSLKPEDTAVYYCGKGSAGRGMDSWGQGTQVTVSS | low polyreactivity
QVQIVESGGGLIQEGGSLRLSCAASGSTFYYYAMGWYRPAPGKERELVAAIDRDDRTNYADSVKGRFTSSRDNAQNTVYLQMTSLKPEDTAVYYCAAVEIYEYDYWGQGTQVTVSS | low polyreactivity
